The values that follow come from patent publication US11879134.

For data set [1], the system named is Type I-B Cas complex (Clo1313_2969-2976; Cas3, Cas5, Cas8, Cas6, DevR) (Clostridium thermocellum). The experiment in a line: cell_activity.
A further data set concerns ThermoCas9. The data set is described as follows: cell_activity. To be noted: PAM NNNNCNAA; no cell killing observed.

“AUAAUGACAUUUAUGGUACUGUUGUGGUAAUAGACGA / CAGTTAATAATGACATTTATGGTACTGTTGTGGTAATAGACGA / TCGTCTATTACCACAACAGTACCATAAATGTCATTATTAACTG” yielded an activity in data set [1] (PAM 5'-CAGTTA, plasmid interference, strong spacer promoter, spacer sequence from Table 1 pTY series, scale: fold decrease in transformation efficiency) of 10.

For the sequence “GCAUAUUUGUUCUGGUCAAG / GCATATTTGTTCTGGTCAAG / CTTGACCAGAACAAATATGC [ThermoCas9 sgRNA#1 spacer ; pyrF site, ThermoCas9 #1]”, the activity (% cell killing) with ThermoCas9 came to 0.

In data set [1] (no-PAM (GGC) control, target spacer gives 7 CFU/ug), “CUUGAAGGCAUGAGGGUGUUUUAUGAAACUUGCAAAU / CTTGAAGGCATGAGGGTGTTTTATGAAACTTGCAAAT / ATTTGCAAGTTTCATAAAACACCCTCATGCCTTCAAG” came in with an activity of 18000 CFU/µg DNA.

Consider “UGAGAUUGUUGCGGAGUAUGUUGAAUCAUGGGGUGAA / TGAGATTGTTGCGGAGTATGTTGAATCATGGGGTGAA / TTCACCCCATGATTCAACATACTCCGCAACAATCTCA [Type I-B pyrF target spacer ; pyrF site, Type I-B, PAM TTA]”, for which the activity (% cell killing) in data set [1] (PAM 5'-TTA, strain LL1586, chromosomal pyrF, 65.8% with native cas promoter) was found to be 99.8.
